Data: patent US20030180744, “High affinity oligonucleotide ligands to growth factors” (GILEAD SCIENCES, INC., published 2003)

Legend:
TGFβ1 [1] = biological target: T1, TGFβ1 (Homo sapiens, UniProt P01137 P01137:279-390); test: cell_activity; second value 112 nM; conditions: tags: Genentech or R&D Systems; chain copies: 2;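 further: inhibition of TGFβ1-induced luciferase reporter expression in mink lung epithelial cells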
Method: (§1) Mink lung epithelial cells (MLEC) carrying the Pail/luc construct were maintained in DME containing 10% fetal bovine serum and 400 μg/ml G418. MLEC-Pail/luc cells were plated at 3.2×10⁴ cells per well in a 96 well Falcon plate, in 100 μl of DME+10% fetal bovine serum overnight. Media was made from autoclaved water. The cells were washed three times ([…]) in serum free DME plus Solution A (1:1). Solution A is 30 mM Hepes pH 7.6, 10 mM glucose, 3.0 mM KCl, 131 mM NaCl, 1.0 mM disodium phosphate. Samples (100 μl) were added in DME containing 20 mM Hepes pH 7.5, and 0.1% BSA (Fluka, radioimmunoassay grade). All samples were in triplicate. After six hours at 37° C. in a 5% CO₂ incubator the media was removed and cells were washed three times (100 μl each) in cold PBS. Lysis buffer (75 μl) (Analytical Luminescence Laboratory) was added and the plates incubated on ice for 20 min. The plates were sealed and frozen at −80° C. until assayed. Samples (25 μl) were assayed for luciferase activity with the Enhanced Luciferase Assay Kit from Analytical Luminescence Laboratory (San Diego, Calif., USA) according to the manufacturer's instructions using the Berthold Microlumat LB96P luminometer.
(§2) Ligands tested for inhibition of TGFβ1 activity were tested at a minimum of five concentrations. […]

TGFβ1 [2] = biological target: T1, TGFβ1; test: filter; boundary experiment; conditions: tags: Genentech or R&D Systems; chain copies: 2
TGFβ1 [3] = biological target: T1, TGFβ1; test: cell_activity; second value 201 nM; conditions: tags: Genentech or R&D Systems; chain copies: 2;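 further: inhibition of TGFβ1-induced luciferase reporter expression in mink lung epithelial cells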
Method: as §1, §2

TGFβ1 [4] = biological target: T1, TGFβ1; test: filter; second determination 0.2 nM; cell IC50 69-109 nM; conditions: tags: Genentech; biotinylated version used in bead assay; chain copies: 2
TGFβ1 [5] = biological target: T1, TGFβ1; test: cell_activity; also 108 and 69 nM; stimulates at low concentration; conditions: tags: Genentech or R&D Systems; chain copies: 2;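 further: inhibition of TGFβ1-induced luciferase reporter expression in mink lung epithelial cells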
Method: as §1, §2

TGFβ1 [6] = biological target: T1, TGFβ1; test: filter; 37 C; cell IC50 20 and 157 nM; conditions: tags: Genentech; biotinylated version used in bead assay; chain copies: 2
TGFβ1 [7] = biological target: T1, TGFβ1; test: cell_activity; second value 157 nM; conditions: tags: Genentech or R&D Systems; chain copies: 2;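 further: inhibition of TGFβ1-induced luciferase reporter expression in mink lung epithelial cells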
Method: as §1, §2

T1 sequence (P01137 279-390, one chain of several): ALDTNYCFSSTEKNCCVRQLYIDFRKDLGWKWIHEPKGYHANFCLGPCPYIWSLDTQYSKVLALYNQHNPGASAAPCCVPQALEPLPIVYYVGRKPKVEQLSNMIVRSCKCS

B1: lib2-6-1 (ssRNA)
RNA: GGGGGAGAACGCGGAUCCUGUCUCCACCGCCGAUACUGGGGUUCCUGGGGCCCCUCCAUGCAGGAGGGGGGUGGUUCGGAGAAAGCUUCGCUCUAGAUCUCCCUUUAGUGAGGGUUA
modifications: 2'-NH2-U, 2'-F-C
Question: Which IC50 (TGFβ1 [1]) does the source give for B1 here?
Answer: 103 nM

Question: Does CUUCCGAGUAGACAGGAGGGAGGGGUGGAUGUGGCGUCUACUC (ssRNA) [lib8-9 boundaries] bind (TGFβ1 [2])?
Answer: binds

B2: lib2-6-1-81 (ssRNA)
RNA: GGGGGAGAACGCGGAUCCUGUCUCCACCGCCGAUACUGGGGUUCCUGGGGCCCCUCCAUGCAGGAGGGGGGUGGUUCGGAG
modifications: 2'-NH2-U, 2'-F-C
Question: With B2 as the binder, how does the IC50 (TGFβ1 [3]) read?
Answer: 298 nM

B3: lib4-12 (ssRNA)
RNA: GGGGGAGAACGCGGAUCCUGAGAAGGACGUCGGGGUCAACGGGGUGAGGUGCAGCAGAAAGGGCCGGCACCACAUGACGUAAAAGCUUCGCUCUAGAUCUCCCUUUAGUGAGGGUUA
modifications: 2'-NH2 pyrimidines
Question: With B3 as the binder, how does the Kd (TGFβ1 [4]) read?
Answer: 0.4 nM

Question: And the IC50 (TGFβ1 [5])?
Answer: 109 nM

B4: lib4-32 (ssRNA)
RNA: GGGGGAGAACGCGGAUCCGGCAACCCCAGGCGCAUAGCUUCCGAGUAGACAGGCGGGAGGGGUGGAUGUGGCGUCACGAGGAAGCUUCGCUCUAGAUCUCCCUUUAGUGAGGGUUA
modifications: 2'-NH2 pyrimidines
Question: For B4, which Kd (TGFβ1 [6]) is on record?
Answer: 0.8 nM

Question: And the IC50 (TGFβ1 [7])?
Answer: 20 nM
